Experimental findings from a protein production outcome set (Wang et al. 2014) are described below.

A short description of this data set: label from the status in PepcDB records.
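Note: failed if final PepcDB status was selected cloned or expressed and not failed if soluble or beyond.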

Consider “MSDRFVIWAPSMHNEPAAKCGYCHGNKGGNMDQLFALDSWAHRYMNKMDVVKIENCTIGSFVEHMDVATYDRMCNMGFRRSGKFLYKVDPLRNCCRLYTIRTAPQELNMTKELKKCISRFATRITSEDYCPAAVASSDFVGKIVNAEMNSKTFYTRFEPALYSEEKYHLFVKYQEKVHQDYNNSPKSFKRFLCDTPFGPEAVLGTQESWEQLNNWQRMKPGEKLKHMGPVHECYYYEGKLIAITVSDILPSGISSVYFIWDPDYSKWSLGKLSALRDLAIIQRTNLQYYYLGYYIEDCPKMNYKANYGAEVLDVCHSKYIPLKPIQDMISRGKLFVIGEEETKVTKELYLVDSETGRGEGFPTDNVVKYKNIAEEIYGVGGCAFKSANESALELKELYGIPYEEEDLDTIYHLKEHNGHAPNGIPNVVPGLLPLWELLDIMQSGKITDLEGRLFLFEIETEGIRPLINFYSEPPNVKKRICDVIRLFGFETCMKAVILYSEQM”, for which the protein production entry was “failed”.

Turning to “MSDRGASAPSLPDDWPAHPDPILALNRMGSFDWDLDAGLFHMDAQAHEVFDLRPEEYDGRPESLALRVPTAESRRMDTIVARAMKDGSENYGTYFRLRRRDGTLRWTHTQGYIRRDETGRPRRIIGIVRDATQ”, the protein production entry was “failed”.

Consider “MSDSDAMTDPNAVSYSNAIVVLCTAPDEASAQNLAAQVLGEKLAACVTLLPGATSLYYWEGKLEQEYEVQLLFKSNTDHQQALLTYIKQHHPYQTPELLVLPVRDGDKDYLSWLNASLL”, for which the protein production entry was “failed”.

On to “MSDSKFLRGTLIVTLGTFLVKFLGMIYVFPFHALVGTEGGTLYTYGYIPYTIFLSIATAGVPLAVSKFVSKYNALGDYKTSRRMFRSGMVMMIVTGVLSFLVLYMTAPLFAEAMLGKQSIHNNVGEVTTIIRLVSFALIVVPAASLIRGYFQGHQSMGPTTVSQIIEQIIRIVFLLAGSFIVIKVLGGTVATAVGVATFAAFVSAVGALGVLIWYWLKRKKYLDQYLIEQTVPESTVSTVQLFKELFAYAIPYVVIGLTIPLYQQIDTLTFNSIMQAIGQGDIAERALGIFTMWTHKLIMIPVSLATAFSLTLVPAITKSFTEKQYRYLKLQITQTFQANMFLTLPAVVGISSLAYPIYTAFYDSDPLGGQVLMWYAPVALLFALFTVTAAILQGINQQKHAIIALIMGVILKFVCNVIFIRYFGTVGAILATAVGFLASVWYTNQQIKKYAHYSFGVVYKRTFQIAVLTLIMVVAVKLSQWILSFMISPDGRIGALITVAICAGIGGLVYGLLAIRTGVLERVFGGEALDKIQRKLGSRFKIKLKSRGA”, for which the protein production result was “not failed”.

Consider “MSDSKFLRGTLIVTLGTFLVKFLGMIYVFPFHALVGTEGGTLYTYGYIPYTIFLSIATAGVPLAVSKFVSKYNALGDYKTSRRMFRSGMVMMIVTGVLSFLVLYMTAPLFAEAMLGKQSVHSNIGEVTTIIRLVSFALIVVPAASLIRGYFQGHQSMGPTTVSQIIEQIIRIVFLLAGSFIVIKVLGGTVATAVGVATFAAFVSAVGALGVLIWYWLKRKKHLDQYLIEQTALESTVSTVQLFKELFAYAIPYVVIGLTIPLYQQIDTLTFNSIMQAIGQGDIAERALGIFTMWTHKLIMIPVSLATAFSLTLVPAITKSFTEKQYRYLKLQITQTFQANMFLTLPAVVGISSLAYPIYTAFYDSDPLGGQVLMWYAPVALLFALFTVTAAILQGINQQKHAIIALIMGVILKFVCNVIFIRYFGTVGAILATAVGFLVSVWYTNQQIKKYAHYSFGVVYKRTFQIAVLTLVMVVTVKLSQWILSFMISPDGRMGALITVAICAGIGGLVYGLLAIRTGVLERVFGGEALEKIQRKLGNRFKIKLKSKGA”, for which the protein production entry was “failed”.

As for “MSDSWARSPSLSGYARQEGKFRVAIGAPRGDIPGQGDSSMSTQTAVLKKDITPQGSDYEIVRRAIEKISLDYRDQPSLEELAEEVGETPTGLQKLFTRWAGLSPKAFLQAVTLDHARRLLDSGMPLLETSFELGMSGPGRLHDLFVTHEAMSPGDYKTRGAGLTIRYGYHASPFGTALIMATDRGLAGLAFSDPGEERAAFADMSSRWPNAIYVEDLAATGPYAARIFDPTLWRPDQPLHVVMIGTDFQVRVWEALLQIPMGKARTYSSIAASIGAPSASRAVGAANGANPLSFVVPCHRAIGKSGDLTGYHWGLTRKRAILGWEAGQVSS”, the protein production entry was “failed”.

Take “MSDTGNYLGPFLVNDFGDRYLYQVNRNAFNSIGSDSLYASTYGESLFAEYQLNIIIGTDSGLFPTYVVNKGIPSGSRYLFIELPEVIERLSEEGILKELPPEVIIATPDTWEEIATDLQINEYVFIDAVRVNESIASSDANLPEYRDISWNINLNVRTLVHETHASINCTQYILRQLENLAENRVAFSRTLVDTFKGRTAVILAGGPSLREALPWVRENRDRLVLIAVSRISKILQSEQIVPHLVATVDPQKVSFEVSREMLYFADMEESPVLVSSYHASPLLVGQWGGRSAYTDSLFPWSTPLNIETHLYTGPTVSNYALSIAMNMGCETIVLAGVDLCFSREGHTHAAGSAENKVGPDLGQLSPRIETNGGWLADTNHGYAHSLEILKLQAELAVSKGHRLYNISLGAAKIPLIEYRPPSEIDLPEDTISTSALIDKYLPPPTSKARLSHYRKIKKELERAQHKFKEILSLSQEALECTDGLFGRNGKERSFRHKVQMDKIERKLDRRYGDFSLLVKQFGLKKFLSILRTPKEEQEWTDEQIEKATRDYYQAYMAGTIQLLAVTNSALSRIEARIEEEKSSPDCDLFISQWLRDGQPGRGRFWLRNHPVTAQCLSEAILGKFRELDDQFTHLMTDEQTIRMELLEKGYDLKHIRSKARLLFRRGEREELEAMAAGIASHPDREKAEPYLYFINGLIAELQQEPNRAIECYQHLLVDPPHPTTEDALRQIASLAIAGNDVENALLALECLSRMSPAYLSPYGEILKALGRYDEAFDAFNRYLSIAPKDVGTLVTLGILCRDAGLADTARDLFARVLENDPTNRVALSQLEGLAAPSND”: the protein production result is reported as “failed”.

“MSDVMTLKKSDIYNSDGSVKHTAFIHDKKTGKANTLYLKPVQQDLLQYHDWLVQENINSEWLFPSASHHNRHITEKQFYKVMARVGDLLSINYHYLGTHTMRKTGAYRVYTQSNYNIGLVMHLLNHSSEVMTLTYLGLDHASRETMLDQIDFG”: the protein production entry is “failed”.

Regarding “MSEAERAGASRQDKSGRLLAGRYRLGDVLGRGGMGTVWRAEDETLGRTVAVKELRFPTSIDEDEKRRLITRTLREAKAIARIRNNSAVTVFDVVDEDNRPWIVMELVEGKSLAEAIREDGLLEPKRAAEVGLAILDVLRAAHREGILHRDVKPSNVLIAEDGRVVLTDFGIAQVEGDPSITSTGMLVGAPSYISPERARGHKPGPAADLWSLGGLLYASVEGVPPYDKGSAIATLTAVMTEPLEEPKNAGPLRSVIYGLLAKDPEQRLDDAGARAMLNEVLHAPQPKEPEPVDATRVVALPPVPEEGTGKGSSGGSGAKRGEEAADRFRGALRSVRKAAGAATASAAARAKSGGTDVSGGTGAAGAGTSSAGSSASASAPAPGKPGAAAVGKPNPSSAGKPGSSAAATPAGTGSGVGQGTAVGGGGRESAVVGSNSGPVKPSSGWPVVPEPDRPPRSVPRAPLTDVVPRRTLVIVAVVVVLAVLGVVLALTLGGDDGSSKDNKGSSDTKAAASSGTSSGTTAGSSGTPKAGGSGSGSGGTHTDSGSKDNTGTGSDEQETDDSSSAGTASGSGGSDDSGSGSGDSSVKTYKSSQGFSIGLPKGWKYQSTGAAGARFTGPDGQKLLVGWTTTPKDDPVADWKNQEQYMVRSQYKRIRIEQVDYRGWNTADWEFTYTEGGTKYRSIDRGFVVNAHQGYALMYTAKASEWDSDLRKDTWQTLAKTFQPKS”, the protein production result is listed as “failed”.

For the sequence “MSEAIRRAEAIDFGPDAQDLLWLSQDPVAVFDAEDRLRAANPAYCATFGCDPAEAPSWRQIMRRNHAMRQGALIVTEDFEGWLAAAAASRGRVPFRAYEAALHDGRWIWITETTAPDGRMLVHATDVTRLRSESLALRSERDAAQRASWTDPLTGVPNRRFVMDHLERWLDQQPRHGTFGTHALAVMDLDRFKQVNDLYGHTAGDAVLVSFCRITTDSIRSVDLFGRFGGEEFVLFMPNCPLETAQARLERLQEALAVAVVSPDLPALRCTFSAGLVAMRRDKDVHHAIRRADRLLYRAKADGRACVRAEI”, the protein production result is “failed”.

Regarding “MSEAKWLSLLGLAARARQLLTGEEQVVKAVQNGQVTLVILSSDAGIHTKKKLLDKCGSYQIPVKVVGNRQMLGRAIGKHERVVIGVKDAGFSRKLAALIDE”, the protein production entry is on record as “not failed”.

Consider “MSEALSDSGLPPVQRVVTGHDAHGRAVFKSEDVTPTRMIPSGDASFLLVWTTATVPADNNDETDGRQREAGLTLDGGSVIRVVDMLPGKESPMHRTNSIDYGIVLEGEIELELDDGAKRTVRQGGIIVQRGTNHLWRNTTDKPCRIAFILIEAPAYLHNGQPLPEDKPDHK”, for which the protein production result is “not failed”.

On to “MSEAPHLTFDLDTPGVSTGHLVVPKGADCEALSLPVFSCNRGEGPSLLITGGNHGNELQGPILARRLVKWLPEAQRCGRIIIVPEINPLAVQAWTRNTPIDGKNLNRVFPGRSDGSVSERIADAISRLLLPVVDTVLDLHSFGPTWDCAPSIISHPIADIDQMTKTVSISKAFKLPVTLLWEHNETDGMFDTLVHRQGKTFICTEFGGGVVSAEALTIYEAGVRNGLIALGLVKGKAEYPTFRQQKTGQTLETTSSDQLKSPSPGIFEPRCSVMDEVEQGDVVGVLHPMGSLSAASIDIRAQSKSTVFAIRSAMYVQGNEEVAILARPLAR”, for which the protein production entry is reported as “not failed”.

Turning to “MSEEQDKQRNTRKKENNRLLTKAAIIGVVAGILGGGIAYGGLSAANLNSNTSSSTASSSSSNTGENGSVTTSSSGTTKVNKSKTTSGTMTSAYKKVQNAVVSVLNYKYTSSSSSSSDIYSMFGYGDSDSSDSSSSKKSLTLYSEGSGVIYTTANGKGYIVTNNHVISGAAKVKVILASGKTIAAKVVGKDSTSDLAVLSIDSKYVTQTASFGDSRSLLSGQTVIAIGSPEGSEYASTVTQGIISSPSRTITYNSNQMTVIQTDAAINSGNSGGPLVNSDGQVIGINSMKLSSSSSGDSVEGMGFAIPSNEVVTIVNQLVKKGKITRPQLGIKVAAIADLNSYYKKQLGISTSLKKGLYVASVTSGSAAASAGIKKGDVITAADGKTVNDVATLHSILYSHNVGDKVKITVNRNGKTMTFTVTLQASN”, the protein production entry is “failed”.
